System: NC(=O)CC[C@H](N)C(=O)O
Test: purified protein
Details: pH 8.0, 30 °C, 11 mM MgCl2, co-substrate ATP

## Cj1418 (L-glutamine kinase) (Campylobacter jejuni subsp. jejuni NCTC 11168 = ATCC 700819)
  Km: 640 ± 60 µM

Reference: PMC5629633
